Measured values taken from IntAct's records for PubMed 21642537.

B1: Polycystin-2 (Homo sapiens), Q13563-1 (parent)
chain: MVNSSRVQPQQPGDAKRPPAPRAPDPGRLMAGCAAVGASLAAPGGLCEQRGLEIEMQRIRQAAARDPPAGAAASPSPPLSSCSRQAWSRDNPGFEAEEEEEEVEGEEGGMVVEMDVEWRPGSRRSAASSAVSSVGARSRGLGGYHGAGHPSGRRRRREDQGPPCPSPVGGGDPLHRHLPLEGQPPRVAWAERLVRGLRGLWGTRLMEESSTNREKYLKSVLRELVTYLLFLIVLCILTYGMMSSNVYYYTRMMSQLFLDTPVSKTEKTNFKTLSSMEDFWKFTEGSLLDGLYWKMQPSNQTEADNRSFIFYENLLLGVPRIRQLRVRNGSCSIPQDLRDEIKECYDVYSVSSEDRAPFGPRNGTAWIYTSEKDLNGSSHWGIIATYSGAGYYLDLSRTREETAAQVASLKKNVWLDRGTRATFIDFSVYNANINLFCVVRLLVEFPATGGVIPSWQFQPLKLIRYVTTFDFFLAACEIIFCFFIFYYVVEEILEIRIHKLHYFRSFWNCLDVVIVVLSVVAIGINIYRTSNVEVLLQFLEDQNTFPNFEHLAYWQIQFNNIAAVTVFFVWIKLFKFINFNRTMSQLSTTMSRCAKDLFGFAIMFFIIFLAYAQLAYLVFGTQVDDFSTFQECIFTQFRIILGDINFAEIEEANRVLGPIYFTTFVFFMFFILLNMFLAIINDTYSEVKSDLAQQKAEMELSDLIRKGYHKALVKLKLKKNTVDDISESLRQGGGKLNFDELRQDLKGKGHTDAEIEAIFTKYDQDGDQELTEHEHQQMRDDLEKEREDLDLDHSSLPRPMSSRSFPRSLDDSEEDDDEDSGHSSRRRGSISSGVSYEEFQVLVRRVDRMEHSIGSIVSKIDAVIVKLEIMERAKLKRREVLGRLLDGVAEDERLGRDSEIHREQMERLVREELERWESDDAASQISHGLGTPVGLNGQPRPRSSRPSSSQSTEGMEGAGGNGSSNVHV

Variants of: B1
Conditions: with PKD1, P98161-3
Sequence of PKD1, P98161-3 (P98161 whole entry, looked up): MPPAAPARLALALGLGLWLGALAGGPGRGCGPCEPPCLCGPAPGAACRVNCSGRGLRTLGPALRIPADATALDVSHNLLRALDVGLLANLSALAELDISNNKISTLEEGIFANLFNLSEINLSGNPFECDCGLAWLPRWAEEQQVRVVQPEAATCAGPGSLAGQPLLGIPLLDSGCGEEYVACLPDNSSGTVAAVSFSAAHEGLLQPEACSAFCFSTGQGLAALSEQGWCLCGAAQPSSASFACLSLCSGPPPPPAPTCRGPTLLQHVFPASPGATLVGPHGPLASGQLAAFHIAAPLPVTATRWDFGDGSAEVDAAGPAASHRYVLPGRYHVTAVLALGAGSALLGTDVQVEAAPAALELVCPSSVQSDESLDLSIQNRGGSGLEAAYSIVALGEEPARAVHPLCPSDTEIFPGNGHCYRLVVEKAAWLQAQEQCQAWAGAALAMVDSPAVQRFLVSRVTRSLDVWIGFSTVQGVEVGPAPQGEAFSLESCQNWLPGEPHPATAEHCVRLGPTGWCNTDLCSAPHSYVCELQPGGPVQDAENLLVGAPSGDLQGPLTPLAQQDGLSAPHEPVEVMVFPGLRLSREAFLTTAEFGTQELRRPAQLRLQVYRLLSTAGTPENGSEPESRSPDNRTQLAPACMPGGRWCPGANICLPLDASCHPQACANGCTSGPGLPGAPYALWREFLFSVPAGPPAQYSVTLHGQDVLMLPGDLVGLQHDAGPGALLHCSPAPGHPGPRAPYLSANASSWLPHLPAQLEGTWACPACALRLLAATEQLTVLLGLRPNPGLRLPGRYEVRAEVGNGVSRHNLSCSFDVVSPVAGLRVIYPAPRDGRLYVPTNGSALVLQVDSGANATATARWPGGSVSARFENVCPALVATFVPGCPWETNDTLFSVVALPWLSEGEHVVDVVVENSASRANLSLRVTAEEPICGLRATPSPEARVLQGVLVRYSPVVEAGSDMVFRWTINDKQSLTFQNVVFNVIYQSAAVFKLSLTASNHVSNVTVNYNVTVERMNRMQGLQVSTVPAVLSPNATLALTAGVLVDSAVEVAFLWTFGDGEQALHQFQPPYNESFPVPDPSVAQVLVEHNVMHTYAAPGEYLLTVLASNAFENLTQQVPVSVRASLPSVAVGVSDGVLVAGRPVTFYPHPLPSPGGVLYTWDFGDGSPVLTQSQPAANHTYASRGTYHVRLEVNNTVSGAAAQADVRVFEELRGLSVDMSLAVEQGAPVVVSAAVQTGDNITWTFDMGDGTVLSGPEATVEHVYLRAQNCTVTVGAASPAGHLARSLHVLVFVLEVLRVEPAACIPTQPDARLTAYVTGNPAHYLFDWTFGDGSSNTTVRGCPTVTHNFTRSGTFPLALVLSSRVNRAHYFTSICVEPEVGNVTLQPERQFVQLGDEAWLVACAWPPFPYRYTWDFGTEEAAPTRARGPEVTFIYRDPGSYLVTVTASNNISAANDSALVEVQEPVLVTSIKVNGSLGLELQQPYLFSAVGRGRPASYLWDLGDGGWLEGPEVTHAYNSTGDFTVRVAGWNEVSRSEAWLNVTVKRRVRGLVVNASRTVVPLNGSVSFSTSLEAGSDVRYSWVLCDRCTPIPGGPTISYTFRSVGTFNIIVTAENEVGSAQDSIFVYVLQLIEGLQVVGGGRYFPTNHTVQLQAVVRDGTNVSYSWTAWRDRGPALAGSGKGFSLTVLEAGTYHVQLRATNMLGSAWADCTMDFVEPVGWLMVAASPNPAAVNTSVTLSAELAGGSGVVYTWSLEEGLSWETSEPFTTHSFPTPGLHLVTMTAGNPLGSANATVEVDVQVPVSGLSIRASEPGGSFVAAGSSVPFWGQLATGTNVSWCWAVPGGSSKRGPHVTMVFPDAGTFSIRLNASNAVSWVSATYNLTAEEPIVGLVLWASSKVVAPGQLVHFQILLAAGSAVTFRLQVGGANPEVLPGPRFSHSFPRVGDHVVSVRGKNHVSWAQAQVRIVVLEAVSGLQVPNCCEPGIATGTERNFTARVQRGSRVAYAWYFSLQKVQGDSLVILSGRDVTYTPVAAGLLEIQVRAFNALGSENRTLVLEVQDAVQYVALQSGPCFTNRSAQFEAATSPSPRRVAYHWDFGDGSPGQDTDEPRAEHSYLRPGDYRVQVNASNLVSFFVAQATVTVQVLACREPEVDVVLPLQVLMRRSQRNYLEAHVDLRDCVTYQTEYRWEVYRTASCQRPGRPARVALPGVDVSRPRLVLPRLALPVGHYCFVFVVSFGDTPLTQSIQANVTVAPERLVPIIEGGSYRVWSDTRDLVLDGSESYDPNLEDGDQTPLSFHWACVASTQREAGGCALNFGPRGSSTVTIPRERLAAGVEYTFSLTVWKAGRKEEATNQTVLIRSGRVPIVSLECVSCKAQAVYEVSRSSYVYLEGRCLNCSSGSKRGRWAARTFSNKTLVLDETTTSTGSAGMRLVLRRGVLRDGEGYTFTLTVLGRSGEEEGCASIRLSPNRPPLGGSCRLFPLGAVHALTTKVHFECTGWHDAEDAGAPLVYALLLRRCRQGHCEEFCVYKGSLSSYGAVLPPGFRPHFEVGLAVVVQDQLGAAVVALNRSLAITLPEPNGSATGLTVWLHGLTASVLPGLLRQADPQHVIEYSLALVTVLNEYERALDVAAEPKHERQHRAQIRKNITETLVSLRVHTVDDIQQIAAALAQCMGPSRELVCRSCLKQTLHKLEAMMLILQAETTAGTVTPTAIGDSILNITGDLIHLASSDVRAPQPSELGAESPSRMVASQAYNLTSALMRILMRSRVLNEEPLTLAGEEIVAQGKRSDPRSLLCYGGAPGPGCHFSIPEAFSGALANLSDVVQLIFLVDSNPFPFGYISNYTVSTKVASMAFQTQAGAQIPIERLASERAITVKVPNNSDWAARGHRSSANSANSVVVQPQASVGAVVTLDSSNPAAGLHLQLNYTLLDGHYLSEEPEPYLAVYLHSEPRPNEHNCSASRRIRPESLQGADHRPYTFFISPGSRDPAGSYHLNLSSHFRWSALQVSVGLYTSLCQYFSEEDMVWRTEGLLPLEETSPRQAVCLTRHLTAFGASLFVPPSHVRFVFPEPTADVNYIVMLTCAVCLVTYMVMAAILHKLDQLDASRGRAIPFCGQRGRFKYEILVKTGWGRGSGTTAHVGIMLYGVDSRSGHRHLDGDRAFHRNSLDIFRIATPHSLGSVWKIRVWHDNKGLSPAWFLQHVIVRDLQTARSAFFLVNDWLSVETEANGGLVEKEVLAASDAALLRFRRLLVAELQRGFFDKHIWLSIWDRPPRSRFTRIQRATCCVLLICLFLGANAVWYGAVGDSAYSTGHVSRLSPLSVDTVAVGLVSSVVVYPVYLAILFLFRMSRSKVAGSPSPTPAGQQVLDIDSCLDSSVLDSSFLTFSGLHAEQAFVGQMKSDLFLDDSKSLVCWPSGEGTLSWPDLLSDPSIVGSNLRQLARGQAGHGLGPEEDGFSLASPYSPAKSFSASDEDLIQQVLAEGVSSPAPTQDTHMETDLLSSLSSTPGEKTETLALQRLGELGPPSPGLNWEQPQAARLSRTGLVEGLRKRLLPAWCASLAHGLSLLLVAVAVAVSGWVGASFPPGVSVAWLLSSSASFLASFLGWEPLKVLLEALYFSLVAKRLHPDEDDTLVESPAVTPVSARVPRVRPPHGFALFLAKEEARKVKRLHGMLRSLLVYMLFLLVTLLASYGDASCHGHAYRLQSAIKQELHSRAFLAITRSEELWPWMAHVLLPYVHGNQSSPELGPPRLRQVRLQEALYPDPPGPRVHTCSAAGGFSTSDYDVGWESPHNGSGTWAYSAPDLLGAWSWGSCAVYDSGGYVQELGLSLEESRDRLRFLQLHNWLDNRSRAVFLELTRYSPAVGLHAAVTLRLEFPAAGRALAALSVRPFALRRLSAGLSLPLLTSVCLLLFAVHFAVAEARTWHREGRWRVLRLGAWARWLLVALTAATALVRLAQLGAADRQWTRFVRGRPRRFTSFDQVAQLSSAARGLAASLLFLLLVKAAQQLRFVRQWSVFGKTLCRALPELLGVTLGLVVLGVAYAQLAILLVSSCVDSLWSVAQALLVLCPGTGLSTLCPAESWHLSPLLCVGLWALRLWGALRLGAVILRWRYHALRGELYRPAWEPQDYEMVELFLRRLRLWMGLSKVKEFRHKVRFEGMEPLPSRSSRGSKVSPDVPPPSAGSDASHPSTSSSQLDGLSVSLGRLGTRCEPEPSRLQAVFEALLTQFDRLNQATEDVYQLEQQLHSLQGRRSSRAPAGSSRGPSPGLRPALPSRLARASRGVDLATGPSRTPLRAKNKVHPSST

Variant | effect of a mutation on the interaction
V880A;L881A;L885A | decreasing interaction strength
K876A;R877A | decreasing interaction strength
K876G;R877G;R878G;E879G | decreasing interaction strength
R883A;L884A | decreasing interaction strength
L881D;L885D | decreasing interaction strength
V865A;I869A | decreasing interaction strength
K876A;R877A;R878A;E879A | decreasing interaction strength
R877A;R878A | decreasing interaction strength
D861A;I864A;V865A | decreasing interaction strength
R877G;R878G | disrupting interaction strength
L881A;L885A | disrupting interaction strength

Variants of: B1
Conditions: with pkd1_mouse Pkd1, O08852

Variant | effect of a mutation on the interaction
V880A;L881A;L885A | decreasing interaction strength
L881A;L885A | decreasing interaction strength
